From the nanobody polyreactivity screen of Harvey et al. (2022)

assay: yeast display, Sf9 membrane polyspecificity reagent, FACS + sequencing; frameworks hold sequencing errors
Method in brief: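 A synthetic nanobody library was expressed on Saccharomyces cerevisiae BJ5465 by galactose induction for 36–48 hours. The library was stained for 1 hour at 4 °C with 10% biotinylated, detergent-solubilized Sf9 membrane reagent and enriched with streptavidin microbeads before FACS. Low and high (top ~1%) gates were set on anti-HA fluorescence for expression and streptavidin fluorescence for reagent binding, and each polyreactivity label reflects the gate of origin.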

Sequence | polyreactivity (PSR sort gate)
QVQLVESGGGLVQAGGSLRLSCAASGSTFYYYAMGWYRQAPGKERELVASISSAGNTNYADSVKGRFTISRDNAKNTVYLQMNSLKPEDTAVYYCAARYSGHPRYYYYWGQGTQVTVSS | low polyreactivity
QVQLVESGGGLVQAGGSLRLSCAASGSTFYYYAMGWYRQAPGKERELVATISSGSSTNYADSVKGRFTISRDNAKNTVYLQMNSLIPEDTAVYYCAADRWYINLYIDATISYDYWGQGTQVTVSS | low polyreactivity
QVQLVESGGGLVQAGGSLRLSCAASGSTFYYYARGWYRQAPGKERELVAAISTSDGSTYYADSVKGRFTISRDNAKNTVYLQMNSLKPEDTAVYYCAADSYERFASYYYWGQGTQVTVSS | low polyreactivity
QVQLVESGGGLVQAGGSLRLSCAASGSTFYYYTMGWYRQAPGKERELVAISWDGDSTYSADSVKGRFTISRDNAKNTVYLQMNSLKPEDTAVYYCAAADYYLPDDVSDYVDANFDYWGQGTQVTVSS | low polyreactivity
QVQLVESGGGLVQAGGSLRLSCAASGSTGVNTMGWYRQAPGKERELVAAIRATGGSTYYADSVKGRFTISRDNAKNTVYLQMNSLKPEDTAVYYCAARYYRSQYWYDDSWGQGTQVTVSS | high polyreactivity
QVQLVESGGGLVQAGGSLRLSCAASGSTIAYYTMGWYRQAPGKERELVAAISASGGSTYYADSVKGRFTISRDNAKNTFYIQMNSLKPEDTAVYYCNAESYLTGWWVDYWGQGTQVTVSS | low polyreactivity
QVQLVESGGGLVQAGGSLRLSCAASGSTIDGNAMGWYRQAPGKERELVAAITSGGSTNYADSVKGRFTISRDNAKNTVYLQMNSLKPEDTAVYYCAADTVSFSILYDYWGQGTQVTVSS | low polyreactivity
QVQLVESGGGLVQAGGSLRLSCAASGSTIDKYAMGWYRQAPGKERELVAAIRKSGGRTYYADSVKGRFTISRDNAKHTVYLQMYSLKQEDTAVYYCAAVLPNYYSVRYGYWGQGTQVSVSS | high polyreactivity
QVQLVESGGGLVQAGGSLRLSCAASGSTIDYYAMGWYRQARGKERELVAAISWSGGSTYYADSVKGRFTISRDNAKNTVYLQMNSLKPEDTAVYYCAADSAFYTGSYYGWSDYDYWGQGTQVTVSS | low polyreactivity
QVQLVESGGGLVQAGGSLRLSCAASGSTIERYAMGWYRHAPGKERELVAAIRWSGGSTYYADSVKGRFTISRDNAKNTVYLQMNSLKPEDTAVYYCAASRSNADWFDSWGQGTQVTVSS | high polyreactivity
QVQLVESGGGLVQAGGSLRLSCAASGSTIKYYAMGWYRPAPGKERELVAAISKGATRTYYADSVKGRFTISRDHAKNTVYLQMNSLKPEDTAVYFCAADRLKFPCEYDYWGHGTQVTVSS | high polyreactivity
QVQLVESGGGLVQAGGSLRLSCAASGSTINQYAMGWYRQAPGKERELVAAITRRGGSTYYADSVKGRFTISRDNAKNTVYLQMNSLKPEDTAVYYCAAAYPYTTVSYDYWGQGTQVTVSS | high polyreactivity
QVQLVESGGGLVQAGGSLRLSCAASGSTINYNAMGWYRQAPGKERELVAAIDSGVSTNYADSVKGRFTISRDNAKNTVYFQMNSLKPEDTAVYYCNADPDYFDYWGQGTQVTVSS | low polyreactivity
QVQLVESGGGLVQAGGSLRLSCAASGSTIPLYAMGWYRQAPGKERELVAAISRRGGRTYYADSVKGRFTISRDNAKNSVYLQMNSLKPEDTGVYYCAARYTRRHYDYWGQGTKVTVSS | high polyreactivity
QVQLVESGGGLVQAGGSLRLSCAASGSTIPSYAMGWYRQATGKERELVASITYSDGTTRYADSVKGRFTISRDYAKNTVYFQMYSLKPEDTAVYYCNAVYYREGMDYWGQGTQVSVSS | low polyreactivity
QVQLVESGGGLVQAGGSLRLSCAASGSTIPYYAMGWYRQAPGKERELVATISSSGGSTYYADSVKGRFTISRDNAKNTVYLQMKSLKPEDTAVYYCAARYQTSGFRYRYGYWGQGTQVTVSS | high polyreactivity
QVQLVESGGGLVQAGGSLRLSCAASGSTIQSNMGWYRQAPGKERELVAAITTNGSSTYYADSVKGRFTISRDNAKNTVYLQMNCLKPEDTAVYDCAAGPRYRYYYGWYDYWGQGTQVNVSS | high polyreactivity
QVQLVESGGGLVQAGGSLRLSCAASGSTIRGYAMGWYRQAPGKEREFVAAITVNGGNTYYADSVKGRFTISRDNAKNTVYLQMNSLKPEDTAVYYCNVPVTVGKDSITEHYYWGLGTQVTVSS | low polyreactivity
QVQLVESGGGLVQAGGSLRLSCAASGSTIRGYARGWYRQAPGKEREFVAAITVNGGNTYYAESVKGRFTLSRDNAKNTVYLQMNSLKPEDTEGYYCNVPVTVVKASITEHYYWGQGTQVTVSS | low polyreactivity
QVQLVESGGGLVQAGGSLRLSCAASGSTIRLYAMGWYRQAPGKERELVAAISVSGGSTHYADSVKGRFTISRDNAKNTVYLQMNSLKPEDTAVYYCNAAGNPVSRYHYDYWGQGTQVTVSS | high polyreactivity
QVQLVESGGGLVQAGGSLRLSCAASGSTISGYAMGWYRQAPGKERELVAAISSGGSTYYADSVKGRFTISRDNAKNTVYLQLNSLKPEDTAVFYCNVARSRYRYRYDYWGQGTQVTVSS | high polyreactivity
QVQLVESGGGLVQAGGSLRLSCAASGSTISSNAMGWYRQAPGKERELVAAIDSGGSTYYADSVKGRFTISRDNAKNTVYLQMNSLKPEDTAVYYCNPERETYDTGRAVLPGGYWGQGTQVTVSS | low polyreactivity

Sequence | polyreactivity (PSR sort gate)
QVQLVESGGGLVQAGGSLRLSCAASGSTISYNAMGWYRQAPGKERELVAAIRTSGGRTYYADSVKGRFTISRDNAKNTVYLQMNSLKPEDTAVYYCAKRWVYRYGYEYWGQGTQVTVSS | high polyreactivity
QVQLVESGGGLVQAGGSLRLSCAASGSTITGNTMGWYRQAPGKERELVAAITNGGSTYYADSVKGRFTISRDNAKNTVYLQMNSLKPEDTAVYYCAAESTFYGYDYWGQGTQVTVSS | high polyreactivity
QVQLVESGGGLVQAGGSLRLSCAASGSTITVNDMGWYRQAPGKERELVAAITQRDGRTFYADSVKGRFTISRDNAKNTVYLQMNSLKPVDTSVYYFAADYVWYTYGDYDYWGLGTQVTVSS | low polyreactivity
QVQLVESGGGLVQAGGSLRLSCAASGSTIVNNAMGWYIQAPGKERELVAAIRSSDGRTYYADSVKGRFTISRDNAKNTVYLQMNSLKPEDTAVYYCNRRYRKYSSAKYDYWGQGTQVTVSS | high polyreactivity
QVQLVESGGGLVQAGGSLRLSCAASGSTIVYYAMGWYRQAPGKERELVAAISGSGGSTYYADSVKGRFTISRDNAKNTVYLQMNSLKPEDTAVYYCAKSYGSHRKIRTSFGYWGQGTQVTVSS | high polyreactivity
QVQLVESGGGLVQAGGSLRLSCAASGSTIWFYVMGWYRQAPGKERELVATIRWSTSSTYADSVKGRFTISRDNAMNTVYLQMNILKPEDTAVYYCNAQYSQVNGYDYWGQGTQVTVSS | low polyreactivity
QVQLVESGGGLVQAGGSLRLSCAASGSTIYDNAMGWYRQATGKESELVAAITWSVGRTYYADSVKGRFTISRDNAKNTVYLQMNSMKPEDTAVYYCAARSQDRTYFQVFVSDTPYNYWGQGTQVTVSS | low polyreactivity
QVQLVESGGGLVQAGGSLRLSCAASGSTIYFNAMGRYRQAPGKERELAAGIRSSGGSTYYADSVKGRFTISRDNAKNTVYLQMISLKPEDTAVYYCAGVRYRELYWGQGTQVTVSS | high polyreactivity
QVQLVESGGGLVQAGGSLRLSCAASGSTIYGYAMGWYRQAPGKERELVAAISISGGGTYYADSVKGRFTISRDNAKNTVYLQMNSLKPEDTAVYYCARRYFWGQGTQVTVSS | low polyreactivity
QVQLVESGGGLVQAGGSLRLSCAASGSTIYGYGMGWYRQAPGKERELVAAITGSGDTTYYADSVKGRFTISRDNAKNNVYLQMNSLKPEDTAVYYCNARWHAEYDYWGQGTQVTVSS | low polyreactivity
QVQLVESGGGLVQAGGSLRLSCAASGSTIYLYAMGWYRQAPGKERELVAAIRGRGGRTYYADSVKGRFTISRDNAKNTVYLQMNSLKPEDTAVDYCNADVYAYYRATTRFDYWGQGTQVTVSS | high polyreactivity
QVQLVESGGGLVQAGGSLRLSCAASGSTIYRYAMGWNRQAPGKERELVATISRTGARTNYADSVKGRFTISRDNAKNTVYLQMNSLKPEDTAVYYCAASAPYIYYWGQGTQVTVSS | high polyreactivity
QVQLVESGGGLVQAGGSLRLSCAASGSTIYTYAMGWYRPAPGKERELVAAISYRAGSTYYADSVKGRFTISRDNAKTSVYFQMNSLTPEDTAVYYCNVDGVVVGTKRGGYDYWGQGTQVTVSS | low polyreactivity
QVQLVESGGGLVQAGGSLRLSCAASGSTLAPYVMGWYIQAPGKERELVAVISTRTGRTYYAVSVKGRFTISRDNAKNTVYLQMNSLKPEDTAVYYCAAAYGWSWYRYDYWGQGTQVTVSS | high polyreactivity
QVQLVESGGGLVQAGGSLRLSCAASGSTLARYAMGWYRQAPGKERELVAAISSDGRTYYADSVKGRYTISRDNAKNTVYLQIYSLKPEDTAVYYCATLRPYAYPQYDSWGQGTQVTVSS | high polyreactivity
QVQLVESGGGLVQAGGSLRLSCAASGSTLASYAMGWYRQAPGKERELVAVIDSGGSTYYADSVKGRFTISRDNAKNTVYLQMNSLKPEDTAVYYCAAGWEFSGVLTLFGYWGQGTQVTVSS | low polyreactivity
QVQLVESGGGLVQAGGSLRLSCAASGSTLASYARGWYRQAPGKERELVAAISSSGGSTYYADSVKGRFTISRDNAKNTVYLQMNSLKPEDSEVYYCAARTRTRYGIDYYWGQGTQVTVSS | high polyreactivity
QVQLVESGGGLVQAGGSLRLSCAASGSTLATYTMGWYRQAPGKERELVAAISFGGSTYYADSVKGRFTISRDNAKNTVYLQMNRLKPEDTAVYYCAVYGDSYWGAYYYSDGYWGQGTQVTVSS | low polyreactivity
QVQLVESGGGLVQAGGSLRLSCAASGSTLAVYAMGWYRQAPGKERELDAAISYSGGGTYYADSVKGRFTISRDNAKNTVYLQMNSLKPEDTAVYYCATDLYYEYYTWDYYWGQGTQVTVSS | low polyreactivity
QVQLVESGGGLVQAGGSLRLSCAASGSTLAVYAMLWYRQAPGKERELVAAISYSGGGTYYADSVKGRFTISRDNAKNTVYLQMNSLKPEDTAVYYCATDLYYEYFTWDYYWGQGTQVTVSS | low polyreactivity
QVQLVESGGGLVQAGGSLRLSCAASGSTLDFNAMGWYRQAPGKERELVAGISRDGGSTYYADSVKGRFTISRDNAKNTVYLQMNSLKPEDTAVYYCAVDFLDWYQDYYITYDYWGQGTQVTVSS | low polyreactivity
